Assay results as given in patent publication US20160304578A1 (XYPHOS BIOSCIENCES, published 2016).

Assays:
human NKG2D-Fc [1] = biological target: T1, human NKG2D-Fc (human, UniProt P26718 78-216, limits assumed); test: phage ELISA: ULBP3 variant displayed on phage titrated against NKG2D
T1 construct: not shown: Fc part
T1 sequence (looked up): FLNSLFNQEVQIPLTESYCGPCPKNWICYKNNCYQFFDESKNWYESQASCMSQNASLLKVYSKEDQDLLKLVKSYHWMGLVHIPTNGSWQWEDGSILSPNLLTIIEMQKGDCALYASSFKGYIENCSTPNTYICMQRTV

[2] = biological target: T2, NKG2D on the human NK cell line NKL (human, UniProt P26718 1-216); test: cell-based or functional assay
T2 sequence (looked up): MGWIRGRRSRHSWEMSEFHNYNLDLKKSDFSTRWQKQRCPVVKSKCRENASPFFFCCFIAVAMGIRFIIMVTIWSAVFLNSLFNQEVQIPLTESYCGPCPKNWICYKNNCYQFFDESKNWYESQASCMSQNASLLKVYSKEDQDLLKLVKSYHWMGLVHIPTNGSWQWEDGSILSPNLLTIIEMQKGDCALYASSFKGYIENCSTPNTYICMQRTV

biotinylated human NKG2D [3] = biological target: T3, biotinylated human NKG2D (human, UniProt P26718 78-216, limits assumed, biotinylated (site not stated)); test: biolayer interferometry (Octet), biotinylated human NKG2D; Table 5 compared with Table 3
T3 construct: also called recombinant biotinylated NKG2D
T3 sequence (looked up): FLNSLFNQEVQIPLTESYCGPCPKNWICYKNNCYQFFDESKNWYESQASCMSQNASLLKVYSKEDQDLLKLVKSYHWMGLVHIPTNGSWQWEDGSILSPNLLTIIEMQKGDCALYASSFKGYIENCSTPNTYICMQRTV

biotinylated human NKG2D [4] = biological target: T3, biotinylated human NKG2D; test: biolayer interferometry (Octet), surface-coated biotinylated human NKG2D, titration 1-100 nM
Method: (§1) In order to characterize the NKG2D binding affinities, both the on-rates and off-rates for the three α1-α2 variant NKG2DLs binding to surface-coated biotinylated human NKG2D were measured using biolayer interferometry (Octet). Binding titrations were performed for each protein using a titration range of 1-100 nM, and the kinetic data were fitted to obtain on-rates, off-rates, and equilibrium binding constants.

biotinylated human NKG2D [5] = biological target: T3, biotinylated human NKG2D; test: biolayer interferometry (Octet), Kd = kOFF/kON
Method: as §1

biotinylated human NKG2D [6] = biological target: T3, biotinylated human NKG2D; test: biolayer interferometry (Octet), biotinylated human NKG2D; the reference is not named
Method: as §1

human NKG2D-Fc [7] = biological target: T1, human NKG2D-Fc; test: phage ELISA: ULBP2 variant displayed on phage titrated against NKG2D

B1: K165S (designed binder)
α1-α2 domain displayed on M13 phage (pIII fusion): AAEPHSLWYNFTIIHLPRHGQQWCEVQSQVDQKNFLSYDCGSDKVLSMGHLEEQLYATDAWGKQLEMLREVGQRLRLELADTELEDFTPSGPLTLQVRMSCESEADGYIRGSWQFSFDGRKFLLFDSNNRKWTVVHAGARRMKEKWEKDSGLTTFFKMVSMRDCSSWLRDFLMHRKKRLEPTAPPMV
In the case of B1, the “EC50 (read off the curve)” value (human NKG2D-Fc [1]) is reported as ~0.002 OD268 (phage).

B2: K165P (designed binder)
α1-α2 domain displayed on M13 phage (pIII fusion): AAEPHSLWYNFTIIHLPRHGQQWCEVQSQVDQKNFLSYDCGSDKVLSMGHLEEQLYATDAWGKQLEMLREVGQRLRLELADTELEDFTPSGPLTLQVRMSCESEADGYIRGSWQFSFDGRKFLLFDSNNRKWTVVHAGARRMKEKWEKDSGLTTFFKMVSMRDCPSWLRDFLMHRKKRLEPTAPPMV
For B2, the “EC50 (read off the curve)” value (human NKG2D-Fc [1]) was ~0.004 OD268 (phage).

B3: R162G (designed binder)
α1-α2 domain displayed on M13 phage (pIII fusion): AAEPHSLWYNFTIIHLPRHGQQWCEVQSQVDQKNFLSYDCGSDKVLSMGHLEEQLYATDAWGKQLEMLREVGQRLRLELADTELEDFTPSGPLTLQVRMSCECEADGYIRGSWQFSFDGRKFLLFDSNNRKWTVVHAGARRMKEKWEKDSGLTTFFKMVSMGDCKSWLRDFLMHRKKRLEPTAPPMV
For B3, the “EC50 (read off the curve)” value (human NKG2D-Fc [1]) was ~0.005 OD268 (phage).

B4: α1-α2 variant 16 (designed binder)
chain: EPHSLRYNLTVLSWDGSVQSGFLTEVHLDGQPFLRCDRQKCRAKPQGQWAEDVLGNKTWDRETRDLTGWGKDLRMTLAHIKDQKEGLHSLQEIRVCEIHEDNSTRSSQHFYYDGELFLSQNLETLEWTMPQSSRAQTLAMNVRNFLKEDAMETDTHYHAMRADCLQELRRYLKSGVVLRRTVPPMVQVTRSEASGGSGDRVTITCRASQDVSTAVAWYQQKPGKAPKLLIYSASFLYSGVPSRFSGSGSGTDFTLTISSLQPEDFATYYCQQSYTTPPTFGQGTKVEIKGGSSRSSSSGGGGSGGGGEVQLVESGGGLVQPGGSLRLSCAASGFTFTSTGISWVRQAPGKGLEWVGRIYPTNGSTNYADSVKGRFTISADTSKNTAYLQMNSLRAEDTAVYYCARTYGIYDLYVDYTEYVMDYWGQGTLVTVSSGGSSRSSSSGGGGSGGGGDIQMTQSPSSLSASGGSGQITVTCRASGFYPWNITLSWRQDGVSLSHDTQQWGDVLPDGQGTYQTWVATRISQGEEQRFTCYMEHSGQHSTHPVPSGKGSHHHHHH
With B4 the “killing of FGFR3-expressing P815 target cells by NKL cells (calcein-release assay), fold over WT at 0.78 nM” value [2] was roughly 15 fold.

B5: α1-α2 variant 25 (designed binder)
chain: EPHSLRYNLTVLSWDGSVQSGFLTEVHLDGQPFLRCDRQKCRAKPQGQWAEDVLGNKTWDRETRDLTGWGKDLRMTLAHIKDQKEGLHSLQEIRVCEIHEDNSTRSSQHFYYDGELFLSQNLETLEWTMPQSSRAQTLAMNVRNFLKEDAMETDTHYHAMRADCLSELRRYLKSGVVLRRTVPPMVQVTRSEASGGSGDRVTITCRASQDVSTAVAWYQQKPGKAPKLLIYSASFLYSGVPSRFSGSGSGTDFTLTISSLQPEDFATYYCQQSYTTPPTFGQGTKVEIKGGSSRSSSSGGGGSGGGGEVQLVESGGGLVQPGGSLRLSCAASGFTFTSTGISWVRQAPGKGLEWVGRIYPTNGSTNYADSVKGRFTISADTSKNTAYLQMNSLRAEDTAVYYCARTYGIYDLYVDYTEYVMDYWGQGTLVTVSSGGSSRSSSSGGGGSGGGGDIQMTQSPSSLSASGGSGQITVTCRASGFYPWNITLSWRQDGVSLSHDTQQWGDVLPDGQGTYQTWVATRISQGEEQRFTCYMEHSGQHSTHPVPSGKGSHHHHHH
notes: Expressed in HEK293 (Expi293)
B5 was tested, and the “fold enhancement in equilibrium binding affinity against variant 16” value (biotinylated human NKG2D [3]) was 8 fold, the koff (biotinylated human NKG2D [4]) was 2.9e-05 s⁻¹ and the kon (biotinylated human NKG2D [4]) was 470000 M⁻¹ s⁻¹. For the same binder, the “EC50 for cell killing, fold improvement over variant 16” value [2] was roughly 5 fold, the “killing of FGFR3-expressing P815 target cells by NKL cells (calcein-release assay), fold over variant 16 at 0.2 nM” value [2] was roughly 3 fold and the Kd (biotinylated human NKG2D [5]) was 0.062 nM.

B6: α1-α2 variant 20 (designed binder)
chain: EPHSLRYNLTVLSWDGSVQSGFLTEVHLDGQPFLRCDRQKCRAKPQGQWAEDVLGNKTWDRETRDLTAWGKDLRMTLAHIKDQKEGLHSLQEIRVCEIHEDNSTRSSQHFYYDGELFLSQNLETLEWTMPQSSRAQTLAMNVRNFLKEDAMQTDTHYRAMHADCLFELRRYLKSGVVLRRTVPPMVQVTRSEASGGSGDRVTITCRASQDVSTAVAWYQQKPGKAPKLLIYSASFLYSGVPSRFSGSGSGTDFTLTISSLQPEDFATYYCQQSYTTPPTFGQGTKVEIKGGSSRSSSSGGGGSGGGGEVQLVESGGGLVQPGGSLRLSCAASGFTFTSTGISWVRQAPGKGLEWVGRIYPTNGSTNYADSVKGRFTISADTSKNTAYLQMNSLRAEDTAVYYCARTYGIYDLYVDYTEYVMDYWGQGTLVTVSSGGSSRSSSSGGGGSGGGGDIQMTQSPSSLSASGGSGQITVTCRASGFYPWNITLSWRQDGVSLSHDTQQWGDVLPDGQGTYQTWVATRISQGEEQRFTCYMEHSGQHSTHPVPSGKGSHHHHHH
notes: Expressed in HEK293 (Expi293)
B6 gave a koff (biotinylated human NKG2D [4]) of 3e-05 s⁻¹, a kon (biotinylated human NKG2D [4]) of 360000 M⁻¹ s⁻¹ and a Kd (biotinylated human NKG2D [5]) of 0.083 nM.

B7: α1-α2 variant 48 (designed binder)
chain: EPHSLRYNLTVLSWDGSVQSGFLTEVHLDGQPFLRCDRQKCRAKPQGQWAEDVLGNKTWDRETRDLTGWGKDLRMTLAHIKDQKEGLHSLQEIRVCEIHEDNSTRSSQHFYYDGELFLSQNLETLEWTMPQSSRAQTLAMNVRNFLKEDAMATDTHYIAMRADCLAELRRYLKSGVVLRRTVPPMVQVTRSEASGGSGDRVTITCRASQDVSTAVAWYQQKPGKAPKLLIYSASFLYSGVPSRFSGSGSGTDFTLTISSLQPEDFATYYCQQSYTTPPTFGQGTKVEIKGGSSRSSSSGGGGSGGGGEVQLVESGGGLVQPGGSLRLSCAASGFTFTSTGISWVRQAPGKGLEWVGRIYPTNGSTNYADSVKGRFTISADTSKNTAYLQMNSLRAEDTAVYYCARTYGIYDLYVDYTEYVMDYWGQGTLVTVSSGGSSRSSSSGGGGSGGGGDIQMTQSPSSLSASGGSGQITVTCRASGFYPWNITLSWRQDGVSLSHDTQQWGDVLPDGQGTYQTWVATRISQGEEQRFTCYMEHSGQHSTHPVPSGKGSHHHHHH
notes: Expressed in HEK293 (Expi293)
For B7, the koff (biotinylated human NKG2D [4]) was 0.003 s⁻¹, the kon (biotinylated human NKG2D [4]) was 200000 M⁻¹ s⁻¹ and the “fold reduction in NKG2D binding affinity” value (biotinylated human NKG2D [6]) was 250 fold. It also gave a Kd (biotinylated human NKG2D [5]) of 15 nM.

B8: α1-α2 variant 18 (designed binder)
chain: EPHSLRYNLTVLSWDGSVQPGFLTEVHLDGQPFLRCDRQKCRAKPQGQWAEDVLGNKTWDRETRDLTLWGKDLRMTLAHIKDQKEGLHSLQEIRVCEIHEDNSTRSSQHFYYDGELFLSQNLETLEWTMPQSSRAQTLAMNVRNFLKEDAMETDTHYHAMRADCLQELRRYLKSGVVLRRTVPPMVQVTRSEASGGSGDRVTITCRASQDVSTAVAWYQQKPGKAPKLLIYSASFLYSGVPSRFSGSGSGTDFTLTISSLQPEDFATYYCQQSYTTPPTFGQGTKVEIKGGSSRSSSSGGGGSGGGGEVQLVESGGGLVQPGGSLRLSCAASGFTFTSTGISWVRQAPGKGLEWVGRIYPTNGSTNYADSVKGRFTISADTSKNTAYLQMNSLRAEDTAVYYCARTYGIYDLYVDYTEYVMDYWGQGTLVTVSSGGSSRSSSSGGGGSGGGGDIQMTQSPSSLSASGGSGQITVTCRASGFYPWNITLSWRQDGVSLSHDTQQWGDVLPDGQGTYQTWVATRISQGEEQRFTCYMEHSGQHSTHPVPSGKGSHHHHHH
With B8 the “killing of FGFR3-expressing P815 target cells by NKL cells (calcein-release assay), fold over WT at 0.78 nM” value [2] was roughly 15 fold.

B9: α1-α2 variant 17 (designed binder)
chain: EPHSLRYNLTVLSWDGSVQSGFLTEVHLDGQPFLRCDRQKCRAKPQGQWAEDVLGNKTWDRETRDLTLWGKDLRMTLAHIKDQKEGLHSLQEIRVCEIHEDNSTRSSQHFYYDGELFLSQNLETLEWTMPQSSRAQTLAMNVRNFLKEDAMETDTHYHAMRADCLQELRRYLKSGVVLRRTVPPMVQVTRSEASGGSGDRVTITCRASQDVSTAVAWYQQKPGKAPKLLIYSASFLYSGVPSRFSGSGSGTDFTLTISSLQPEDFATYYCQQSYTTPPTFGQGTKVEIKGGSSRSSSSGGGGSGGGGEVQLVESGGGLVQPGGSLRLSCAASGFTFTSTGISWVRQAPGKGLEWVGRIYPTNGSTNYADSVKGRFTISADTSKNTAYLQMNSLRAEDTAVYYCARTYGIYDLYVDYTEYVMDYWGQGTLVTVSSGGSSRSSSSGGGGSGGGGDIQMTQSPSSLSASGGSGQITVTCRASGFYPWNITLSWRQDGVSLSHDTQQWGDVLPDGQGTYQTWVATRISQGEEQRFTCYMEHSGQHSTHPVPSGKGSHHHHHH
B9 was tested, and the “killing of FGFR3-expressing P815 target cells by NKL cells (calcein-release assay), fold over WT at 0.78 nM” value [2] was roughly 15 fold.

B10: R80L (designed binder)
α1-α2 domain displayed on M13 phage (pIII fusion): AAEPHSLSYDITVIPKFRPGPRWCAVQGQVDEKTFLHYDCGNKTVTPVSPLGKKLNVTTAWKAQNPVLREVVDILTEQLLDIQLENYTPKEPLTLQARMSCEQKAEGHSSGSWQFSFDGQIFLLFDSEKRMWTTVHPGARKMKEKWENDKVVAMSFHYFSMGDCIGWLEDFLMGMDSTLEPSAGAPPMV
In the case of B10, the “EC50 (read off the curve)” value (human NKG2D-Fc [7]) is reported as ~0.01 OD268 (phage).

B11: V152L (designed binder)
α1-α2 domain displayed on M13 phage (pIII fusion): AAEPHSLSYDITVIPKFRPGPRWCAVQGQVDEKTFLHYDCGNKTVTPVSPLGKKLNVTTAWKAQNPVLREVVDILTEQLRDIQLENYTPKEPLTLQARMSCEQKAEGHSSGSWQFSFDGQIFLLFDSEKRMWTTVHPGARKMKEKWENDKVLAMSFHYFSMGDCIGWLEDFLMGMDSTLEPSAGAPPMV
B11 was tested, and the “EC50 (read off the curve)” value (human NKG2D-Fc [7]) was ~0.01 OD268 (phage).

B12: V151D (designed binder)
α1-α2 domain displayed on M13 phage (pIII fusion): AAEPHSLCYDITVIPKFRPGPRWCAVQGQVDEKTFLHYDCGNKTVTPVSPLGKKLNVTTAWKAQNPVLREVVDILTEQLRDIQLENYTPKEPLTLQARMSCEQKAEGHSSGSWQFSFDGQIFLLFDSEKRMWTTVHPGARKMKEKWENDKDVAMSFHYFSMGDCIGWLEDFLMGMDSTLEPSAGAPPMV
With B12 the “EC50 (read off the curve)” value (human NKG2D-Fc [7]) was ~0.01 OD268 (phage).
